Test results: patent CN113735970A (INST MILITARY MEDICINE ACADEMY MILITARY SCIENCES PLA, dated 2021)

Columns and labels:
SARS-CoV-2 WT S-ECD蛋白 = SARS-CoV-2 WT S-ECD蛋白 (SARS-CoV-2, UniProt P0DTC2 14-1213)
SARS-CoV-2 WT RBD蛋白 = SARS-CoV-2 WT RBD蛋白 (SARS-CoV-2, UniProt P0DTC2 319-541)

B1: 抗SARS-CoV-2全人源单克隆抗体ZWC6 (antibody, human IgG1, kappa, V domains shown)
VH: EVQLVESGGGVVQPGTSLRLSCAASGFSFSHYVMYWVRQAPGKGLDWVAIISFDGSSQYYADSVKGRFTISRDNSKDTLYLQMHSLRPEDTAVYYCAIHGGTYYYDKNILAWGQGTLVTVSS
VL: AIRMTQSPPTLSLSPGERATLSCRASQSVTNYLVWYQQKPGQAPRLLIYDTFNRATGIPARFSGSGSGTDFTLTISSLEPEDFAVYYCQQRSNWPPTFGQGTKVDIKR
Kd (SARS-CoV-2 WT S-ECD蛋白): 1.49 nM | koff (SARS-CoV-2 WT S-ECD蛋白): 0.000255 s⁻¹ | kon (SARS-CoV-2 WT S-ECD蛋白): 171000 M⁻¹ s⁻¹ | Kd (SARS-CoV-2 WT RBD蛋白): 0.683 nM | koff (SARS-CoV-2 WT RBD蛋白): 0.000365 s⁻¹ | kon (SARS-CoV-2 WT RBD蛋白): 535000 M⁻¹ s⁻¹
